Experimental findings from patent US20250262292A1 are described below.

Test [1] addresses native host protein. Description: method not stated.
For test [2], the target named is native host protein. Description: method not stated; reference is wild type PmSLP-1 (SEQ.ID NO: 2).

As to “modified PmSLP-1 with E240A mutation (SEQ.ID NO: 67)”, the Kd – broadly, the free concentration of one partner at which half of the binding sites on the other are occupied at equilibrium, for simple one-to-one binding – in the test with native host protein [1] is under 2000 nM. The substance also returned a factor by which Kd exceeds that of the native non-modified PmSLP in the test with native host protein [2] of over 500 fold. For the substance “modified PmSLP-1 with V214D mutation (SEQ.ID NO: 65)”, the Kd with native host protein [1] is under 2000 nM. In addition, the factor by which Kd exceeds that of the native non-modified PmSLP with native host protein [2] was over 500 fold.

In the test with native host protein [1], “wild type PmSLP-1 protein of P. multocida (SEQ.ID NO: 2)” yielded an equilibrium dissociation constant (Kd) of 30 nM.
